{"source": "patent US11708423B2", "about": "“Chimeric engulfment receptor molecules and methods of use” (CERO THERAPEUTICS, INC., priority 2017, dated 2023)", "molecules": {"B1": {"name": "CER21: Tim4 binding and transmembrane domains, TLR8 signaling domain; SEQ ID NO:88 (protein)", "chain": "MSKGLLLLWLVTELWWLYLTPAASEDTIIGFLGQPVTLPCHYLSWSQSRNSMCWGKGSCPNSKCNAELLRTDGTRIISRKSTKYTLLGKVQFGEVSLTISNTNRGDSGVYCCRIEVPGWFNDVKKNVRLELRRATTTKKPTTTTRPTTTPYVTTTTPELLPTTVMTTSVLPTTTPPQTLATTAFSTAVTTCPSTTPGSFSQETTKGSAFTTESETLPASNHSQRSMMTISTDIAVLRPTGSNPGILPSTSQLTTQKTTLTTSESLQKTTKSHQINSRQTILIIACCVGFVLMVLLFLAFLHHLFYWDVWFIYNVCLAKVKGYRSLSTSQTFYDAYISYDTKDASVTDWVINELRYHLEESRDKNVLLCLEERDWDPGLAIIDNLMQSINQSKKTVFVLTKKYAKSWNFKTAFYLALQRLMDENMDVIIFILLEPVLQHSQYLRLRQRICKSSILQWPDNPKAEGLFWQTLRNVVLTENDSRYNNMYVDSIKQY", "modifications": "CER21 chimeric engulfment receptor"}}, "test_system": "H1703 non-small cell lung cancer cells", "assay": "Killing of paclitaxel treated H1703 cells by CER21+ human primary B cells", "assay_type": "cell-based", "conditions": "Paclitaxel 30 μM, target:effector 5:1, 3 hours, vs EGFRt B cells", "protocol": "Human primary B cells were transduced with pLenti Tim4-TLR8 (CER21) lentivirus expressing truncated EGFR as a transduction marker and stained with CELLTRACE Violet as described in Example 1. One day prior to setting up a co-culture assay, H1703 non-small cell lung cancer cells were incubated with phosphatidylserine inducing chemotherapy Paclitaxel (30 μM) in serum-free media for 24 hours. Floating and adherent H1703 cells were collected, centrifuged, incubated with pHrodo red (1 ng/μL) for 15 minutes at room temperature in PBS, washed, and then plated in a non-adherent 96 well plate. Human CER21+ B cells and H1703 cells were co-cultured at a target cell to effector cell ratio of 5:1 at 37° C. for 3 hours. B cells transduced with truncated EGFR were used as control. The plate was then imaged using a 20X objective, Keyence BZ-X710 microscope (FIG. 21). Cells undergoing apoptosis show increasing Red fluorescence as the intracellular pH drops in the earliest stages of apoptosis (FIG. 21, top row). Adjacent cells not induced by Paclitaxel treatment remain only dimly fluorescent. Apoptotic measurements in the presence of CER21+ B cells were quantified as the Area under the Curve of red fluorescent objects and outlined in blue using automated software (FIG. 21, bottom row; FIG. 22), for each high powered field. White arrows show apoptosis events.", "data": [{"molecule": "B1", "values": [{"measurement": "killing of paclitaxel treated H1703 cells (apoptotic object area)", "value": "enhance killing of target cells at sub-therapeutic dose of chemotherapy"}]}]}
